Measured values: the supplement of paper PMC10567573

B1: SLC19A2 (parent)
chain: IYPVWTYSYLVLLFPVFLATDYLR
B2: PTPRD (parent)
chain: LTKLREMGREKCHQYWPAERSARY

Variants of: B1
Assay: protein stability index of a GFP-peptide fusion (GPS, HEK-293T) (PSI 1-6); higher = more stable
Settings: c terminus: a fixed tail appended
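Further: lentivirally expressed fusions sorted by FACS into six bins by GFP to DsRed ratio, PSI derived from sequencing read proportions per bin multiplied by bin number.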

Protein stability index: each site, then its substitutions
W5: G 4.5; R 3.39; M 2.65; I 4.83; E 3.02; P 3.19; N 2.25; F 3.25; L 2.19; V 2.65; D 2.3; A 3.28; K 4.35; Y 2.72; S 2.89; H 3.15; C 3.27
P15: C 3.79; F 2.95; R 2.7; Y 1.06; E 3.03; L 2.41; H 2.75; W 3.27; M 3.22; Q 3.38; G 1.93; A 3.53; N 2.11; S 2.5
D21: T 2.75; A 3.19; W 2.24; N 2.65; H 3.39; G 2.73; P 2.63; E 3.77; Y 3.42; R 2.67; F 2.61; K 2.46; C 2.36; S 2.09; V 2.38
L12: F 2.25; P 3.92; K 3.56; A 3.41; I 3.39; W 3.3; H 3.3; R 2.37; S 2.91; V 2.6; Q 3.02; N 1.72; M 2.48; Y 2.31; T 2.41; D 2.3
V16: F 3.04; H 4.12; Q 3.85; K 1.95; N 2.79; A 3.1; I 3.52; C 2.79; S 3.4; T 2.15; M 2.55; P 2.42; L 2.41; Y 2.34; D 4.04; R 3.91; E 1.72
L23: I 2.61; D 2.96; W 3.21; M 3.02; A 3.57; R 3.03; S 2.62; T 2.48; N 1.46; G 3.42; K 2.22; H 2.11; E 2.68; Q 2.54; V 2.32
R24: M 2.99; F 3.56; Q 3.46; G 2.58; N 4.07; W 3.24; C 1.84; K 3.31; D 2.64; H 2.63; I 3.43; S 3.04; Y 2.75; A 2.61; E 1.91; P 1.99; L 2.41; T 1.69
Y9: D 3.8; I 3.67; K 2.81; F 1.75; M 2.97; R 4.42; C 4.17; H 2.97; L 2.46; T 2.67; E 2.2; V 3.11; N 3.02; Q 2.02
V4: M 2.76; I 3.46; Q 3.11; E 3.43; N 3.44; K 2.96; H 3.32; L 3.73; F 3.35; S 3.21; G 3.35; Y 2.91; T 3.3
F14: Y 2.88; V 2.97; W 2.47; A 2.08; E 2.74; M 4.1; L 3.35; H 3.32; I 3.07; P 2.48; K 1.99; T 3.75; G 3.54; Q 2.98; R 3.83; C 2.63
L18: G 3.7; Q 2.84; M 3.69; Y 2.32; I 3.03; C 3.04; S 3.42; D 2.81; K 2.51; A 2.5; F 2.3; R 4.66; E 3.06; N 2.84; H 3.99; T 2.54; P 3.1
Y7: T 2.58; W 3.7; F 2.84; E 3.72; Q 2.58; R 3.07; N 3.72; M 2.32; I 2.4; H 1.33
T6: V 2.9; S 2.86; D 2.08; K 3.04; Q 2.73; A 2.63; E 2.71; R 2.39; L 4.55; N 3.48; H 3.42; M 2.95; Y 3.51
L13: M 3.06; I 2.53; F 2.64; W 3.58; A 3.41; S 2.34; T 1.87; Q 4.28; C 2.38; P 1.48; D 3.57; N 2.64; E 2.6; Y 2.87; G 1.19; V 3.06
A19: D 2.38; H 2.48; F 3.11; Q 2.78; G 2.6; P 4.21; N 3.19; L 3.29; S 2.5; T 1.57; K 1.69; Y 3.37; I 2.47; W 3.92; M 2.59; V 3.34
F17: D 2.99; K 3.78; A 3.59; C 2.97; S 2.64; E 3.22; W 2.19; Y 2.43; R 2.95; P 4.41; G 2.81; N 3.6; M 3.21; T 2.95; H 3.74
V11: F 2.34; G 3.44; N 2.92; L 2.77; W 4.19; D 3.85; M 1.95; A 3.63; P 2.04; Q 4.14; C 3.16; H 3.87; I 3.28
Y22: E 2.71; P 3.49; G 1.66; V 2.6; D 2.55; T 2.68; F 3.76; S 3.06; W 2.78; Q 1.98; K 4.23; R 1.75
L10: I 2.9; S 3.94; W 3.88; T 2.94; E 3.11; N 4.14; R 2.9; K 1.93; G 3.23; V 3.74; M 2.85; D 4.06; H 3.75; Q 2.81; Y 3.63; P 2.29
T20: Y 1.95; C 2.53; I 4.41; L 4.02; E 1.62; A 2.94; P 3.55; F 2.44; S 2.33; Q 3.01; W 1.93
S8: M 3.15; L 2.69; R 3.57; A 4.5; C 3.17; D 3.67; Q 3.59; F 2.43; K 3.14; G 2.84; I 2.41; H 3.06; W 2.99; E 3.31; P 3.7

Variants of: B2
Assay: as above
Settings: c terminus: a fixed tail appended

Protein stability index, by site and new letter:
L1: D 3.59; C 2.42; Y 2.21; F 1.97; K 3.36; G 2.47; S 2.59; N 3.1; R 2.47; M 2.95; H 2.87; I 2.26; W 2.43; P 2.66; V 2.39; A 2.88; Q 2.87; T 2.86; E 3.12
T2: D 2.83; G 2.77; E 3.03; C 1.82; A 2.69; F 1.96
